Measured values published in paper PMC10761123 (RNA Biology, 2023).

Biological target: the molecule itself
Test: crystal structure

B1: Arabidopsis thaliana PUMY K185A mutant, C-terminal His-tagged, as crystallized (enzyme, UniProt Q84K35 21-330, looked up)
chain: EANNKLRSLVKISPQVSEALSNGRAVVALESTIISHGMPYPQNLQTAKEVESIVRENGAIPATIAILNGVPCIGLSEEELERLASLGKSVQKTAGRDIANVVATRGNGATTVSATLFFASMVGIQVFVTGGIGGVHRHANHSMDISSDLTALGRTPIAVISAGVASILDIPKTLEYLETQEVYVAAYKSDEFPAFFTEKSGCKAPSRVNSPEDCARVIDANMKLNRQAGILFAIPIPKHHSAAGNLIESATQRALTEAREQNVTGNAETPFLLARVNELTGGTSLAANIALVKNNALIGSQIAVALSQLM
stoichiometry N: 3
